Legend:
PDGF-AA = PDGF-AA (human, UniProt P04085 87-211); experiment: SPR; 10 mM Tris-HCl, 150 mM NaCl, 5 mM KCl, pH 7.4; EMSA room temperature 30 min, 12% PAGE in TBE; SPR 25 C (RB1 SPR with 650 mM NaCl); details: protein: recombinant, chain copies: 2
[1] = target: c-KIT intracellular domain (human, UniProt P10721 544-976); experiment: EMSA; 10 mM Tris-HCl, 150 mM NaCl, 5 mM KCl, pH 7.4; EMSA room temperature 30 min, 12% PAGE in TBE; SPR 25 C (RB1 SPR with 650 mM NaCl); details: protein: recombinant; label: 5'-FITC; G4
Chain of c-KIT intracellular domain (P10721 544-976): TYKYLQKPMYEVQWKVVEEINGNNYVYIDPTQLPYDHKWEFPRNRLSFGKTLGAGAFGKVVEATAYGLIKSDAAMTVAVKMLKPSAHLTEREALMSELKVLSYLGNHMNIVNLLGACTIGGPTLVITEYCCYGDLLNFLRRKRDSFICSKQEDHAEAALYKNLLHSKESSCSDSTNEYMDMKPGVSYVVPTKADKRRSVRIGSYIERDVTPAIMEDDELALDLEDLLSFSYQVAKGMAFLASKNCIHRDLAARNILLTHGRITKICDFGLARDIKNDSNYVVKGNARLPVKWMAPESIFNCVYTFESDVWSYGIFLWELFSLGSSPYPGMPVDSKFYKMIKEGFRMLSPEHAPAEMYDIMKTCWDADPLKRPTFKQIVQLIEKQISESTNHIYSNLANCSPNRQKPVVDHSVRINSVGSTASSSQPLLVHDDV

VEGF165 = VEGF165 (human, UniProt P15692-4 27-191); experiment: SPR; 10 mM Tris-HCl, 150 mM NaCl, 5 mM KCl, pH 7.4; EMSA room temperature 30 min, 12% PAGE in TBE; SPR 25 C (RB1 SPR with 650 mM NaCl); details: protein: recombinant, chain copies: 2
Chain of VEGF165 (P15692 other isoform, or with tags, fused parts or gaps): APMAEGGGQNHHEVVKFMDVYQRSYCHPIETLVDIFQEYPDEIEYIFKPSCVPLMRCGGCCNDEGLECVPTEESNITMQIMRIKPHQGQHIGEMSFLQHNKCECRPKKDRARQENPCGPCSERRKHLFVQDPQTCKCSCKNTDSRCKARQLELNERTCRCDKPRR

VEGF121 = VEGF121 (human, UniProt P15692-9 27-147); experiment: EMSA; 10 mM Tris-HCl, 150 mM NaCl, 5 mM KCl, pH 7.4; EMSA room temperature 30 min, 12% PAGE in TBE; SPR 25 C (RB1 SPR with 650 mM NaCl); details: protein: recombinant, chain copies: 2
Chain of VEGF121 (P15692 other isoform, or with tags, fused parts or gaps): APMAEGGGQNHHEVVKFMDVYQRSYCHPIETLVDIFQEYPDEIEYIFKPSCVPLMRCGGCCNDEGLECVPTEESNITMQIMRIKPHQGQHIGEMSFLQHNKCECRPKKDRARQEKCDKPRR

VEGF121, human = VEGF121, human (Homo sapiens (Human), UniProt P15692 27-147); experiment: EMSA; 2.6 uM VEGF121; details: chain copies: 2
PDGF-AA, human = PDGF-AA, human (Homo sapiens (Human), UniProt P04085 87-211); experiment: SPR; 10 mM Tris-HCl pH 7.4, 150 mM NaCl, 5 mM KCl, 25 C; protein amine-coupled on CM5; details: chain copies: 2
VEGF165, human = VEGF165, human (Homo sapiens (Human), UniProt P15692 27-191); experiment: as above; details: chain copies: 2
RB1, human = target: T1, RB1, human (Homo sapiens (Human), UniProt P06400); experiment: SPR; 10 mM Tris-HCl pH 7.4, 650 mM NaCl, 5 mM KCl, 25 C; DNA on SA chip, Scatchard; details: label: 5'-biotin
T1 sequence: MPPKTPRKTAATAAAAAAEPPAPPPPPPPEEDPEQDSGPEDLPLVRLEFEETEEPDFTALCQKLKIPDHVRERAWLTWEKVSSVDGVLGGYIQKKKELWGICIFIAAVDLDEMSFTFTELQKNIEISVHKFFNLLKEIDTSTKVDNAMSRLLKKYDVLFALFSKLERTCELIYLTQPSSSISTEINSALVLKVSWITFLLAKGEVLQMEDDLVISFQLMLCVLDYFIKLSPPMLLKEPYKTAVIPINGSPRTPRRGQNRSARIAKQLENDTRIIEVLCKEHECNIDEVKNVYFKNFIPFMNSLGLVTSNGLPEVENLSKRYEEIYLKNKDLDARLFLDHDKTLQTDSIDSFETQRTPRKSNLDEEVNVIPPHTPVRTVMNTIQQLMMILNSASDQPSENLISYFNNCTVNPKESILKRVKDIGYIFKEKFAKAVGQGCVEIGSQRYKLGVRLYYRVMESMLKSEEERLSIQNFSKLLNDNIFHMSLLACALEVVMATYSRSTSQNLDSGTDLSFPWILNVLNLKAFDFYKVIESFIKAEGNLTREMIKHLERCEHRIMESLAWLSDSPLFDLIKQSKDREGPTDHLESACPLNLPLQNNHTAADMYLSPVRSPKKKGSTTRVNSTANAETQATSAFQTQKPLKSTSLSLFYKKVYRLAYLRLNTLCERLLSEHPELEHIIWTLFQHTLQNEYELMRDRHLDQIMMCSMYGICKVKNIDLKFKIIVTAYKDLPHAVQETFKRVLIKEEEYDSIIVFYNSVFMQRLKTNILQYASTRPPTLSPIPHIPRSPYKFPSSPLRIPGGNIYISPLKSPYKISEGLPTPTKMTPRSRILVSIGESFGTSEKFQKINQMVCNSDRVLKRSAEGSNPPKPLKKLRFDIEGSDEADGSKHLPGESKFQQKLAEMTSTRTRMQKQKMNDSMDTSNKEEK

[2] = label: none (SPR), not expected to form G4
[3] = label: 5'-FITC (gel shift), none (SPR), parallel G4
[4] = label: 5'-TAMRA (gel shift), parallel G4, monomeric and multimeric bands
[5] = label: 5'-TAMRA (gel shift), 5'-biotin (SPR to RB1), antiparallel G4

Binder: GGAGGCTTTTTTTTTTTTTCTTTTTCTTTTTCTTTTTATTTTCGCGGC (ssDNA) [PDGFA G4 Mut.]
- binding result (PDGF-AA; [2]): no binding

Binder: CGGGCGGGCGCGAGGGAGGGG (structured_DNA) [c-KIT G4-1]
- binding result [1]: no binding

Binder: GGGGCGGGCCGGGGGCGGGGTCCCGGCGGGGCGG (structured_DNA)
- Kd (VEGF165; [3]): 170 nM
- binding result (PDGF-AA; [3]): no binding
- binding result (VEGF121; [3]): no binding

Binder: GGGGCGGGCCGGGGGCGGGGTCCCGGCGGGGCGG (structured_DNA, G-quadruplex (promoter-derived))
- binding result (VEGF121, human; label: FITC): no binding
- binding result (PDGF-AA, human): no binding

Binder: GGTTGGTGTGGTTGG (structured_DNA, G-quadruplex) [TBA]
- binding result (VEGF165, human): no binding
- binding result (PDGF-AA, human): no binding

Binder: GTTTCTTTCCGGTTTCGTTTTCCCGGCGGGGCGG (ssDNA) [VEGFA G4 Mut.]
- binding result (VEGF165; [2]): no binding

Binder: CGTTTTGTTTTGGGCGGC (ssDNA) [RB1 G4 mutant]
- binding result (RB1, human): no binding

Binder: GGAGGCGGGGGGGGGGGGGCGGGGGCGGGGGCGGGGGAGGGGCGCGGC (structured_DNA)
- Kd (VEGF165; [4]): 10 nM
- binding result (VEGF121; [4]): no binding

Binder: GGAGGCGGGGGGGGGGGGGCGGGGGCGGGGGCGGGGGAGGGGCGCGGC (structured_DNA, G-quadruplex (promoter-derived))
- binding result (VEGF121, human; label: TAMRA): no binding
- Kd (VEGF165, human): 10 nM

Binder: CGGGGGGTTTTGGGCGGC (structured_DNA, G-quadruplex (promoter-derived))
- binding result (VEGF121, human; label: TAMRA): no binding
- Kd (VEGF165, human): 300 nM
- binding result (PDGF-AA, human): no binding

Binder: GGTTGGTGTGGTTGG (structured_DNA) [TBA (15-mer thrombin-binding aptamer)]
- binding result (VEGF165; label: none, G4): no binding
- binding result (PDGF-AA; label: none, G4): no binding

Binder: CGGGGGGTTTTGGGCGGC (structured_DNA)
- Kd (VEGF165; [5]): 300 nM
- binding result (PDGF-AA; [5]): no binding
- binding result (VEGF121; [5]): no binding

Binder: AGGGAGGGCGCTGGGAGGAGGG (structured_DNA) [c-KIT G4-2]
- binding result [1]: no binding

Source: publication PMC3672139, “Aptamer Selection Based on G4-Forming Promoter Region”
